The subject of the data set is MS2 coat protein. Kind of data set: apparent KD of MS2 coat protein; designed switch direction (-1 OFF switch, 1 ON switch): 1; higher = weaker reporter binding. The essentials: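 The buffer was Tris-HCl pH 7.5 with KCl, MgCl2, BSA, DTT, tRNA and Tween-20. In it, SNAP-549-labelled MS2 coat protein was titrated in doubling steps from 0.7 or 1.5 nM to 3 µM over chip-bound RNA switches transcribed by stalled E. coli RNA polymerase on Illumina chips. Apparent KD is the per-design median over clusters of curve fits to normalised fluorescence.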

The mark [1] stands for this setting: input ligand: microRNA oligo, concentration not stated.
[2] abbreviates: Eterna round: R95, input ligand: FMN 200 uM.
[3] abbreviates: Eterna round: R95, input ligand: microRNA oligo, concentration not stated.
[4] abbreviates: Eterna round: R95, input ligand: none.

In the case of “AAAAGACAUGAGGAUCACCCAUGUGAAAACGUAGGAGGAUAUGUCGUGAAAAAAGACUUGACAGAAGGCCUGUGUC [SS1 - 34] (Eterna round: R96, puzzle: Same State 1)”, under setting [1], the “apparent KD of MS2 coat protein” value was 88.9 nM.

In the case of “AAAAUAUAAAGAGAGGAUAUCCAAAGAACCACAUGAGGAUCACCCAUGUAAAGAAAGAAUAAGUGGGAGAAGGCUCAAAUAAUAA [Designing denovo 24] (Eterna round: R96, puzzle: Same State 2)”, the “apparent KD of MS2 coat protein” value worked out at 24.8 nM (input ligand: FMN 200 uM), 82.8 nM under setting [1] and 114 nM (input ligand: none).

With “AAACACGGCAAAACGCCGUGACAUGAGGAUCACCCAUGUACACAGGAUAUCAUGGCAAAACACCAUGAGAAGGGUGAUCAAGAC [Zaleala] (Eterna round: R96, puzzle: Same State NG 3)”, the “apparent KD of MS2 coat protein” value runs as follows: (input ligand: FMN 200 uM) 30.7 nM; under setting [1], 26.1 nM; (input ligand: none) 34.9 nM.

Regarding “AAACAUGAGCGAGGAUAUGCGGACGAUUACGCUGUAGAAGGCGCAUGUAAAACAACAUGAGGAUCACCCAUGUCAUGUACAUGA (Eterna round: R96, puzzle: Same State NG 1)”, the “apparent KD of MS2 coat protein” value (input ligand: FMN 200 uM) amounted to 81.3 nM, the “apparent KD of MS2 coat protein” value under setting [1] was determined as 50.4 nM and the “apparent KD of MS2 coat protein” value (input ligand: none) turned out to be 83.6 nM.

As to “AAACAUGAGGAUCACCCAUGUCGAUCAGAACUCUGAUCUGCUCAGGAUAUCCGAAUGCGCGUUUCGGAGAAGGGAGAAAUGUGA [Lareraedqu] (Eterna round: R96, puzzle: Same State NG 3)”, the “apparent KD of MS2 coat protein” value is 69.8 nM (input ligand: FMN 200 uM), 36.4 nM under setting [1] and 53.2 nM (input ligand: none).

Regarding “AAACCCAGUCUGUAGGAUAUGCACCUGCCGACAUGAGGAUCACCCAUGUACCCUAACAACAGCGUGCAGAAGGGCAGCAAUAAAA [Verilara] (puzzle: Same State 2)”, the “apparent KD of MS2 coat protein” value under setting [2] was found to be 19.2 nM, the “apparent KD of MS2 coat protein” value under setting [3] amounted to 22.9 nM and the “apparent KD of MS2 coat protein” value under setting [4] was determined as 26.3 nM.

On to “AAACGGCCCAACGGAGGGCCACAUGAGGAUCACCCAUGUACAUAGGAUAUCACGCCAACGAGGCGUGAGAAGGGUGAUUAAAAC [Bisomaor] (Eterna round: R96, puzzle: Same State NG 3)”, for which the “apparent KD of MS2 coat protein” value came out at 28.8 nM (input ligand: FMN 200 uM), 8.11 nM under setting [1] and 73.5 nM (input ligand: none).

On to “AAACUACAUGAGGAUCACCCAUGUGAAAACCGCAUAGGAUAUCCGCAGCAAUAAACUGACGGAGAAGGGUGACCGG [Sobearcege] (puzzle: Same State 1)”, for which the “apparent KD of MS2 coat protein” value is 306 nM under setting [2], 414 nM under setting [3] and 549 nM under setting [4].

In the case of “AAAGAAACUACAGGAUAUGCGUGGGAAAGAUAGGCAGAAGGGUGGAUAAUAAAUUCCAGCACAUGAGGAUCACCCAUGUACUGG [Ince] (Eterna round: R96, puzzle: Same State NG 1)”, the “apparent KD of MS2 coat protein” value came to 17 nM (input ligand: FMN 200 uM), 15.6 nM under setting [1] and 22.7 nM (input ligand: none).

Consider “AAAGAACAUGAGGAUCACCCAUGUGGAAGAGGCACAGGAUAUCACCUCGCACGUGCGAGGUGAGAAGGGUGAUGGU [Zalecema] (puzzle: Same State 1)”, for which the “apparent KD of MS2 coat protein” value amounted to 122 nM under setting [2], 80.7 nM under setting [3] and 128 nM under setting [4].

“AAAGCACAUGAGGAUCACCCAUGUGGAAAUAACACAGGAUAUCCGGCCGAAAAUACGGUGGGAGAAGGGUGACCUA [Inxetemama] (puzzle: Same State 1)”: the “apparent KD of MS2 coat protein” value reads like this: under setting [2], 302 nM; under setting [3], 60.4 nM; under setting [4], 86.7 nM.

On to “AAAGCACAUGAGGAUCACCCAUGUGGAAAUAACACAGGAUAUCCGGCCGAAACUAAGGUGGGAGAAGGGUGACCUA [Aeriste] (puzzle: Same State 1)”, for which the “apparent KD of MS2 coat protein” value under setting [2] is 191 nM, the “apparent KD of MS2 coat protein” value under setting [3] is 40.2 nM and the “apparent KD of MS2 coat protein” value under setting [4] worked out at 73.5 nM.

Take “AAAGGAUGAUGUUACAUGAGGAUCACCCAUGUAGUGAUAACUAAGGAUAUGUGUUAAACCAGUUAAUAGAAGGUAGGAUCAUUA [AK SSNG3-V2-6] (Eterna round: R96, puzzle: Same State NG 3)”: the “apparent KD of MS2 coat protein” value worked out at 43.8 nM (input ligand: FMN 200 uM), 35.1 nM under setting [1] and 49.4 nM (input ligand: none).

With “AAAGUACAUGAGGAUCACCCAUGUCCAAAAAAGUAAGGAUAUGUGGUGCGACUACGAAACACAGAAGGUACAAAAA [Malcolm Mod] (puzzle: Same State 1)”, the “apparent KD of MS2 coat protein” value was found to be 30.1 nM under setting [2], 13.3 nM under setting [3] and 81.2 nM under setting [4].

With “AACAAAUACACAGGAUAUACAGCGGCAGCCACUGUAGAAGGGUGGGCGGGUUCCAACAUGAGGAUCACCCAUGUACCCAAUAAA [Gerace] (Eterna round: R96, puzzle: Same State NG 1)”, the “apparent KD of MS2 coat protein” value (input ligand: FMN 200 uM) is 161 nM, the “apparent KD of MS2 coat protein” value under setting [1] was 234 nM and the “apparent KD of MS2 coat protein” value (input ligand: none) came out at 699 nM.

As for “AACAAGUUUUUGCUCGCUUAUAAGCAUGUACAUGAGGAUCACCCAUGUCAUGUACAAAGUCCAGCCUGAGCUGGACA [Reversing mir to lane 1] (puzzle: Sensor for hsa-mir-208a)”, the “apparent KD of MS2 coat protein” value came to 24.5 nM under setting [2], 15.5 nM under setting [3] and 25.4 nM under setting [4].

For “AACAAUCUAUCUGAGGAUAUCAUGAAAAAAACAUGAGGAUCACCCAUGUGCAGGAAAACUGCAUAUGAGAAGGCAGAUAGAUUGC [salish99_SS2_r3_004] (Eterna round: R96, puzzle: Same State 2)”, the “apparent KD of MS2 coat protein” value under setting [1] is 504 nM.

On to “AACAAUCUAUCUGAGGAUAUCAUGAAAAAAACAUGAGGAUCACCCAUGUGCAGGAAAACUGCAUAUGAGAAGGCAGAUAGAUUGC [salish99_SS2_r3_004] (puzzle: Same State 2)”, for which the “apparent KD of MS2 coat protein” value by setting is: under setting [2], 32.5 nM; under setting [3], 785 nM; under setting [4], 1690 nM.

On to “AACAAUCUAUCUGAGGAUAUCAUGAAAUAAACAUGAGGAUCACCCAUGUGCUGGAAAACUGCAUAUGAGAAGGCAGAUAGAUUGA [salish99_ss2_r3_037] (puzzle: Same State 2)”, for which the “apparent KD of MS2 coat protein” value was determined as 32.1 nM under setting [2], 237 nM under setting [3] and 395 nM under setting [4].

“AACAAUCUUUCUGAGGAUAUCAUGAAAUAAACAUGAGGAUCACCCAUGUGCAGGAAAACUGCAUAUGAGAAGGCAGAUAGAUUGA [salish99_ss2_r3_024] (puzzle: Same State 2)”: the “apparent KD of MS2 coat protein” value by setting is: under setting [2], 43.3 nM; under setting [3], 414 nM; under setting [4], 1220 nM.

“AACAAUUAACAUGAGGAUCACCCAUGUAUUACUUCGUGUUUUUGCUCGUCUUAUGUUAGGUUCGAUAGAGCUUAACA [Improved] (puzzle: Sensor for hsa-mir-208a version 2)”: the “apparent KD of MS2 coat protein” value was found to be 42.4 nM under setting [2], 12.6 nM under setting [3] and 44.9 nM under setting [4].

As for “AACAGACAUGAGGAUCACCCAUGUAGAAUUAUGGGAGGAUAUACAAAGACGAGAGUCAGAGUAGAAGGCCUAGGAC [salish99-ss1-163] (Eterna round: R96, puzzle: Same State 1)”, the “apparent KD of MS2 coat protein” value (input ligand: FMN 200 uM) is 24.3 nM, the “apparent KD of MS2 coat protein” value under setting [1] was found to be 42.2 nM and the “apparent KD of MS2 coat protein” value (input ligand: none) was found to be 51.7 nM.

Turning to “AACAGUCGGCGAGGAUAUGGACAUACGGACUAACCCGUAUGGCUCACAUGAGGAUCACCCAUGUUCUAGAAGGCGCCACUGAAA [Raridi] (Eterna round: R96, puzzle: Same State NG 2)”, the “apparent KD of MS2 coat protein” value is 14.6 nM (input ligand: FMN 200 uM), 43.4 nM under setting [1] and 74 nM (input ligand: none).

As to “AACAGUCGGCGAGGAUAUGGACGUACGGACUAACCCGUGCAGCUCACAUGAGGAUCACCCAUGUUCUAGAAGGCGCCACUGAAA [Onesusatza] (Eterna round: R96, puzzle: Same State NG 2)”, the “apparent KD of MS2 coat protein” value was 15.9 nM (input ligand: FMN 200 uM), 87.6 nM under setting [1] and 147 nM (input ligand: none).

“AACAUGAGGAUCACCCAUGUCAGGCCGCCGGCCUACAUGAGGAAGGAUAUAGCCUCGAAAAUAGGCUAGAAGGUCCUCAUGAAU [Orises] (Eterna round: R96, puzzle: Same State NG 3)”: the “apparent KD of MS2 coat protein” value was 78.6 nM (input ligand: FMN 200 uM), 6.35 nM under setting [1] and 23.2 nM (input ligand: none).

As to “AACAUUCUAUCUCAGGAUAUCAUGUCAAAGACAUGAGGAUCACCCAUGUACCAGGAAACUGGUUAUGAGAAGGGAGAUAGAAUGG [Mat - Same State 2 - Mod - D48] (puzzle: Same State 2)”, the “apparent KD of MS2 coat protein” value under setting [2] turned out to be 182 nM, the “apparent KD of MS2 coat protein” value under setting [3] turned out to be 195 nM and the “apparent KD of MS2 coat protein” value under setting [4] was found to be 624 nM.

As for “AACCAGGCCAGAGGAUAUGGGAAAGGAAGUGUACUAGAAGGCUGCAGCCUGAACAAACAUGAGGAUCACCCAUGUAAAACGGUG [PowerStrip SSNG 1.27] (Eterna round: R96, puzzle: Same State NG 1)”, the “apparent KD of MS2 coat protein” value is 296 nM (input ligand: FMN 200 uM), 150 nM under setting [1] and 304 nM (input ligand: none).

As to “AACCUACAUGAGGAUCACCCAUGUAUCUGAGGCACAGGAUAUCGACAGGCAAGACACCUGCGAGAAGGGUGACCUC [Same State 1 - Mod of Vinnie Diatater v.2] (puzzle: Same State 1)”, the “apparent KD of MS2 coat protein” value under setting [3] stood at 53.6 nM.

As to “AACGUUGGCGAGCAGGAUAUCCGCUCAUUAACAUGAGGAUCACCCAUGUUCUGCAAGAUGUGCUAGGAGAAGGGCUGGUCGACAU [Edatar] (puzzle: Same State 2)”, the “apparent KD of MS2 coat protein” value under setting [2] was found to be 14.9 nM, the “apparent KD of MS2 coat protein” value under setting [3] is 18.2 nM and the “apparent KD of MS2 coat protein” value under setting [4] stood at 34.8 nM.

(Values after the supplement of paper PMC9170038.)
